Laboratory results reported in PMC5095173, “Disulfide-activated protein kinase G Iα regulates cardiac diastolic relaxation and fine-tunes the Frank–Starling response” (Nature Communications, 2016).

Target: T1, phospholamban (mouse myocardium) (mouse (endogenous in mouse heart)), P61014
T1 chain: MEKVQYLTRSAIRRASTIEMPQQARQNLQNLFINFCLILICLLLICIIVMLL
Experiment: SDS-PAGE of samples not boiled, with immunoblot; mouse heart homogenate, samples not boiled before western blotting for total PLN; WT and C42S PKGIα KI hearts
Settings: remark: other sources report otherwise

B1: phospholamban (mouse myocardium), P61014 1-52 (natural protein)
chain: MEKVQYLTRSAIRRASTIEMPQQARQNLQNLFINFCLILICLLLICIIVMLL
stoichiometry N: 5
